According to US20220348617A1 (published 2022):

T1: Notch 3 EGF domains 5-12 (human, UniProt Q9UM47 197-505)
T1 chain: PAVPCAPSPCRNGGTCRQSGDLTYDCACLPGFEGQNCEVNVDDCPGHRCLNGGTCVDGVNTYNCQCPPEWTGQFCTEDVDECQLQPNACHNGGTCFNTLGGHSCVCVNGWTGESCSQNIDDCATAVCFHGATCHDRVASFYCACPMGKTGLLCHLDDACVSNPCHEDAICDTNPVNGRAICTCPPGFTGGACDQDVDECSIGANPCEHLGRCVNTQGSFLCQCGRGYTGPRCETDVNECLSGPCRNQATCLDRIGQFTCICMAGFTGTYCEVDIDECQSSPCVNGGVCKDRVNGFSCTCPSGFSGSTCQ

T2: Notch1 EGF domains 6-13 (human, UniProt P46531 218-526)
T2 chain: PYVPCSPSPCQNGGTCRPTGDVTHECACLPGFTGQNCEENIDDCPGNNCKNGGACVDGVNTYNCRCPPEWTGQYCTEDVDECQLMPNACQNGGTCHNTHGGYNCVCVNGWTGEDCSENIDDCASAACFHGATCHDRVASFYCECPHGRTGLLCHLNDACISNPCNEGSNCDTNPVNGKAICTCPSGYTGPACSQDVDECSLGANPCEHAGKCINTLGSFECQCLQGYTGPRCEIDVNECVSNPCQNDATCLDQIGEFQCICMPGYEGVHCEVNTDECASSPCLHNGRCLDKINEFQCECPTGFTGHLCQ

T3: Notch2 EGF domains 6-13 (human, UniProt Q04721 221-530)
T3 chain: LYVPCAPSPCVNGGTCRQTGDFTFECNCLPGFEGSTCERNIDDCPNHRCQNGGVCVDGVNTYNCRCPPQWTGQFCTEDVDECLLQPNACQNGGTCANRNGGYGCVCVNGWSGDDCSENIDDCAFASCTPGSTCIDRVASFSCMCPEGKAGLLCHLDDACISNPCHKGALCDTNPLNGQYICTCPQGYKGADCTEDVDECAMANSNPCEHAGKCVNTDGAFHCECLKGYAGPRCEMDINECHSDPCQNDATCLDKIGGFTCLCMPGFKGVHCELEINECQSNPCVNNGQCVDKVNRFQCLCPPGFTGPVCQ

B1: hNotch1 (EGF6-13) (receptor)
chain: T2 chain
B2: wildtype (WT) human DLL4 (ligand)
chain: SGVFQLQLQEFINERGVLASGRPCEPGCRTFFRVCLKHFQAVVSPGPCTFGTVSTPVLGTNSFAVRDDSSGGGRNPLQLPFNFTWPGTFSLIIEAWHAPGDDLRPEALPPDALISKIAIQGSLAVGQNWLLDEQTSTLTRLRYSYRVICSDNYYGDNCSRLCKKRNDHFGHYVCQPDGNLSCLPGWTGEYCQQPICLSGCHEQNGYCSKPAECLCRPGWQGRLCNECIPHNGCRHGTCSTPWQCTCDEGWGGLFCDQDLNYCTHHSPCKNGATCSNSGQRSYTCTCRPGYTGVDCE
B3: hNotch 3 (EGF6-13) (receptor)
chain: T1 chain
B4: hNotch2 (EGF6-13) (receptor)
chain: T3 chain

Key:
DLL4.v3 = assay: SPR; N-EGF3
hDLL4 site2 = assay: SPR; N-EGF3
Notch 3 EGF domains 5-12 [1] = target: T1, Notch 3 EGF domains 5-12; assay: SPR; N-EGF3
Notch1 EGF domains 6-13 [2] = target: T2, Notch1 EGF domains 6-13; assay: SPR; N-EGF3
Notch2 EGF domains 6-13 [3] = target: T3, Notch2 EGF domains 6-13; assay: SPR; N-EGF3
Notch 3 EGF domains 5-12 [4] = target: T1, Notch 3 EGF domains 5-12; assay: SPR
Notch1 EGF domains 6-13 [5] = target: T2, Notch1 EGF domains 6-13; assay: SPR
Notch2 EGF domains 6-13 [6] = target: T3, Notch2 EGF domains 6-13; assay: SPR

| Binder | Kd (DLL4.v3) [µM] | Kd (hDLL4 site2) [µM] | Kd (Notch 3 EGF domains 5-12 [1]) [µM] | Kd (Notch1 EGF domains 6-13 [2]) [µM] | Kd (Notch2 EGF domains 6-13 [3]) [µM] | Kd (Notch 3 EGF domains 5-12 [4]) [µM] | Kd (Notch1 EGF domains 6-13 [5]) [µM] | Kd (Notch2 EGF domains 6-13 [6]) [µM] |
| --- | --- | --- | --- | --- | --- | --- | --- | --- |
| B1 | 0.02 | 0.471 |  |  |  |  |  |  |
| B2 |  |  | 22.2 | 17.9 | 35.7 | 10.4 | 4.04 | 4.99 |
| B3 | 0.0273 | 1.65 |  |  |  |  |  |  |
| B4 | 0.0314 | 3.25 |  |  |  |  |  |  |
